CN115124620A (SHENGHE CHINA BIO PHARMACY CO LTD, dated 2022)

T1: 人NKp30-his蛋白(KACTUS;Cat:NKP-HM430) (human, UniProt O14931 19-135)
T1 construct: Bought protein; Molar concentration was calculated with 35 kDa; also called 重组人NKp30-his; 人NKp30蛋白; not shown: his tag
T1 sequence (looked up): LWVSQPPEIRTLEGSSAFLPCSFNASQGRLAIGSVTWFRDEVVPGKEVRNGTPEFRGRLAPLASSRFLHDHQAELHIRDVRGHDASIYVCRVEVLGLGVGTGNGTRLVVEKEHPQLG


molecular target: T1, 人NKp30-his蛋白(KACTUS;Cat:NKP-HM430); assay: BLI (Octet Red96e), antibody captured on sensor, 100 nM human NKp30-his in solution, 1:1 model

Binder	Kd	koff	kon
抗体1 (antibody, V domains shown, Mouse hybridoma monoclonal antibody purified on Protein A; also called 鼠源抗NKp30抗体; NKp30 mAb) VH: QVQLQQPGAELVKPGASVKLSCKASGYTFTSYWMEWVKLRPGQGFDWIGEINPSNGGTNYNEKFKRKAILTVDKSSSAAYMQLSGLTSEDSAVYYCTIGGDYAWFAYWGQGTLVTVSA VL: DIKMTQSPSSMYASLGERVTITCKASQDIKSYLSWYQQKPWKSPKTLIFYATSLADGVPSRFSASGSGQDYSLTISSLESDDTATYYCLQHGESPYTFGGGTKLEIK	0.439 nM	0.000708 s⁻¹	1.61e+06 M⁻¹ s⁻¹
抗体3 (antibody, V domains shown, Mouse hybridoma monoclonal antibody purified on Protein A; also called 鼠源抗NKp30抗体; NKp30 mAb) VH: QGQLQQSGAEVMKPGASVKISCKANGHTFGSYWIEWIKQRPGHGLEWIGEILPGSGSKKYNEKFEGKATFTEETSSNTAYMELTSLTSEDSAVYYCSRGGYYGSRFAYWGQGTLVTVSA VL: DVVLTQTPLSLPVNIGDQASISCKSTKSLLNSDGFTYLDWYLQKPGQSPQLLIYLVSNRFSGVPDRFSGSGSGTDFTLKISRVEAEDLGVYYCFQSNYLPFTFGSGTKLEIK	2.03 nM	0.00194 s⁻¹	959000 M⁻¹ s⁻¹
抗体2 (antibody, V domains shown, Mouse hybridoma monoclonal antibody purified on Protein A; also called 鼠源抗NKp30抗体; NKp30 mAb) VH: EVQLQQFGAELVKPGASVKISCKASGYTFTDYNMDWVKQSHGKSLEWIAYINPNYEITTYNQKFKGKATLTVDKSSSTAYMELRSLTSEDTAVYYCARGRGGYDPAMDYWGQGTSVTVSS VL: SIVMTQTPKFLLVSAGDRVTITCKASQSVSNDVTWSQQKPGQSPKLLIYYASNRYTGVPDRFTGSGYGTDFTFTISTVQAEDLAVYLCQQDNSTPPTFGAGTKLELK	0.197 nM	0.000212 s⁻¹	1.08e+06 M⁻¹ s⁻¹

Next, values leading:

Kd	koff	kon	Binder
0.846 nM	0.000338 s⁻¹	399000 M⁻¹ s⁻¹	抗体4 (antibody, V domains shown, Mouse hybridoma monoclonal antibody purified on Protein A; also called 鼠源抗NKp30抗体; NKp30 mAb) VH: EVQLVESGGGLVKPGGSLKLSCAASGFTFSDYGMSWIRQTPEKRLEWVASISSGGTYTYYPDSVKGRFTISRDSAKNTLYLQMNSLRSEDTAMYYCARRDGYYSVEYWGQGTSVTVSS VL: QIVLTQSPAIMSASPGGEVTMTCSASSSVSFMHWYQQKSGTSPKRWIFDTSKLASGVPTRFSGSGSGTSYSLTISSMEAEDAATYYCQQWTTNPPTFGGGTKLEIK
0.821 nM	0.000552 s⁻¹	673000 M⁻¹ s⁻¹	抗体5 (antibody, V domains shown, Mouse hybridoma monoclonal antibody purified on Protein A; also called 鼠源抗NKp30抗体; NKp30 mAb) VH: VLILKESGGGLVKPGGSLKLSCAASGFAFSSYDMSWVRQTPEKRLEWVATISSGGSYTYYPDSVKGRFTISRDNARNTLYLQMSSLRSEDTALYYCARHFGDHDGYVMDYWGQGTSVIVSS VL: DIVMTQSPSSLAMSLGQKVTMSCKSSQSLLNSSNQKSNLAWYQQKPGQSPKLLVYFASTRESGVPDRFIGSGSGTDFSLTIRSVQAEDLADYFCQQHYSTPFTFGSGTKLEIK
5.43 nM	0.00585 s⁻¹	1.08e+06 M⁻¹ s⁻¹	抗体6 (antibody, V domains shown, Mouse hybridoma monoclonal antibody purified on Protein A; also called 鼠源抗NKp30抗体; NKp30 mAb) VH: QVQLQQSGAELVRPGVSVKISCKGSGYTFTDYAMHWVKQSHAKSLEWIGIISTYYGDASYNQKFKGKATMTVDKSSSTAYMELARLTSEDSAIYYCARDYDNRYAAMDYWGQGTSVTVSS VL: DIVMTQAAFSNPVTLGTSASISCRSSKSLLHSNGITYLYWYLQKPGQSPQLLIYQMSNLASGVPDRFSSSGSGTDFTLRISRVEAEDVGVYYCAQNLELPYTFGGGTKLEIK
